Reference: PMC5330260 (Analytical biochemistry, 2017)

Target: Gαi1 (human, UniProt P63096 1-354)
Assay: split reporter

Sequence of Gαi1 (P63096 whole entry): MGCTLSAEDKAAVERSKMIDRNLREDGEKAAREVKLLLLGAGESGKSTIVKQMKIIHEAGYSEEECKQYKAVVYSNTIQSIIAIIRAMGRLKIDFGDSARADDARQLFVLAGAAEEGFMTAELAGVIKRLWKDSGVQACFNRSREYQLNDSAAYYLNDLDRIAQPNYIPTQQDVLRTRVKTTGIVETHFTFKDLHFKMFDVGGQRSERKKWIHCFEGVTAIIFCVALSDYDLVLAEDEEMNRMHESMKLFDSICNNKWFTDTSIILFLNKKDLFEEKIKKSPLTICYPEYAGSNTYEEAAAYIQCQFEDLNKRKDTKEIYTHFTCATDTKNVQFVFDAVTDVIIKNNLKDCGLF

net signal increase in response to AlF4, fold of that of RGS6: 2.8 fold | net signal increase in response to AlF4, fold of that of RGS7: 6.3 fold
B1: RGS17 RH domain (domain or fragment, human, UniProt Q9UGC6 73-201, looked up)
chain: PTAEEVLSWSQNFDKMMKAPAGRNLFREFLRTEYSEENLLFWLACEDLKKEQNKKVIEEKARMIYEDYISILSPKEVSLDSRVREVINRNLLDPNPHMYEDAQLQIYTLMHRDSFPRFLNSQIYKSFVE
